From the DeepSol protein solubility set

Assay: soluble on expression in E. coli; label from the status in PepcDB or PDB records

Sequence | soluble on expression in E. coli
MSDSLPQRNGGQILVEALRRNAVDTVYCIPGESYLPVLDALYDTDGIRTVVTRHEGAASNMADAYGKLTGRPGICFVTRGPGATHAANGVHTAQQDSTPMILFVGQVESAFKGREAFQEVDYVQMFSGLAKWAVEIDRIERIPEIVGRAFSVATSGRPGPVVVALPEEILFGSAQVADAPEPRVLPGRPGATAMAELRELLANARRPLLVLGGSGWDSAARKRLGAFVEANGLPVATSFRRQDLFDNRDPHYAGQLGFGAAPALLERLRQADLLLVVGARLGETPSAGYSLVRSPAPAQTLIHVHPDSAELNRVYLARLPIQATPCAFAEALADLAPLPSSTWQDWREAAHADYLAYSTPAASDPAVQGVDLASVVAYLSENLPDDAVIANGAGNYAVWVHRFYRYRQARTQLAPTNGAMGYGLPAAIAASLRDPQRSVVCFAGDGCFMMYPQELATAAQFGATPVVIVVNNGMLGTIRMHQEREYPGRVSATRLDNPDFVALARAFGAHAERVECSADFPAAFRRARESGRPALLELLTDPRQITPQA | not soluble
MSLGGELSLQIINKNPYKLYMDIKGFGFKTVDSIALSMGIEPDSNFRTKAAILYCLEQKEQNGDTYAFIEDIHQQVEKLLNIKINDIKNYLDKEYYYFDVLRLAKRTTWETEKDISVRLKEKINNSQKLFTNNVIHLIPEIERILRIKYDDKQKELFYKINENNILVLTGFAGTGKSSVLNGLLNLFDKKNITYKLMSPTAKAAKRMEECTGKKASTIHRALGLAEGKFLVNEKNPFAEDVIIIDETSMVDIYLFLAVLKGIKNTTKLLCLGDYGQLESISAGNVLFDMIQGGIPCVKLEKIFRQKEDSSLLNVITNIRNGDNPLKNTHKTYLELGRDCKFWLGKKEQTLSRVLLCYKECLKHFSREDIMVLCPMKKGNSGVNKLNQELQKIANSQNTEELKLKDCAYKKEDLVMHIKNDYNANIFSEDCKDTIAKGIFNGDAGKIEKIDLENQKLYVSYDSGIVEYDNSNLNELMLSYALTIHKVQGSQSKVVIVALDMSHYKMLKRSLLYTAASRCVELLIFICDPKAFSIALNNNQVTHKNTFLGELLKISEGHHHHHH | soluble
MGLRFPPKVLEHILSFIDSNEDRNSVSLVCKSWFETERKTRKRVFVGNCYAVSPAAVTRRFPEMRSLTLKGKPHFADYNLVPDGWGGYAWPWIEAMAAKSSSLEEIRMKRMVVTDECLEKIAASFKDFKVLVLTSCEGFSTDGIAAIAATCRNLRVLELRECIVEDLGGDWLSYFPESSTSLVSLDFSCLDSEVKISDLERLVSRSPNLKSLKLNPAVTLDGLVSLLRCAPQLTELGTGSFAAQLKPEAFSKLSEAFSNCKQLQSLSGLWDVLPEYLPALYSVCPGLTSLNLSYATVRMPDLVELLRRCSKLQKLWVMDLIEDKGLEAVASYCKELRELRVFPSEPDLDATNIPLTEQGLVFVSKGCRKLESVLYFCVQFTNAALFTIARKRPNLKCFRLCVIEPFAPDYKTNEPLDKGFKAIAEGCRDLRRLSVSGLLSDKAFKYIGKHAKKVRMLSIAFAGDSDLMLHHLLSGCESLKKLEIRDCPFGDTALLEHAAKLETMRSLWMSSCFVSFGACKLLSQKMPRLNVEVIDEHPPESRPESSPVERIYIYRTVAGPRMDTPEFVWTIHKNPENGVSHLAIK | not soluble
MSLRVIDTHCDALYKLQAGKGKYTFQDAEELDVNFERLIEAKMLLQGFAIFLDEDIPVEHKWKKAVEQVNIFKQHVLHKGGIIHHVKKWCDLENLPEDKIGAMLTLEGIEPIGRDLDKLTQLLDGGVLSVGLTWNNANLAADGIMEERGAGLTRFGKDIIHLLNERKVFTDVSHLSVKAFWETLEQAEFVIASHSSAKAICAHPRNLDDEQIKAMIEHDAMIHVIFHPLFTTNDGVADIEDVIRHIDHICELGGMKNIGFGSDFDGIPDHVKGLEHAGKYQNFLETLGKHYTKEEVEGFASRNFLNHLPKEGHHHHHH | soluble
MRPLKVALVNIPLRVPGSDAWISVPPQGYGGIQWVVANLMDGLLELGHEVFLLGAPGSPAGRPGLTVVPAGEPEEIERWLRTADVDVVHDHSGGVIGPAGLPPGTAFISSHHFTTRPVNPVGCTYSSRAQRAHCGGGDDAPVIPIPVDPARYRSAADQVAKEDFLLFMGRVSPHKGALEAAAFAHACGRRLVLAGPAWEPEYFDEITRRYGSTVEPIGEVGGERRLDLLASAHAVLAMSQAVTGPWGGIWCEPGATVVSEAAVSGTPVVGTGNGCLAEIVPSVGEVVGYGTDFAPDEARRTLAGLPASDEVRRAAVRLWGHVTIAERYVEQYRRLLAGATWK | soluble
MGSDKIHHHHHHMRLLSQVNLNSLKIVESAARHGNFTRAGEEQFITASAVSQRVKSLEDQLRFKIFQRGGNAVSLTPEGETYVSRVREALERIVAASMEATGQSQEHVLKISVLPTFAARWLFPRLPEFQRRYPDIVMRVSTSYATHEFSTSDFDLEIRYGDGHFNGLPSDLLFREDLTPVCSRKLFHEVLGDKPVSKVEPDDLRHFTLLHSDTCTQNWQSWLGFAGASFVLSETKSIYFDSCMMSYEAANAGMGFAVANRAYMASDIRAEKLVAPFAVHHPNSAGWYFVSPHKCLAARKVLLFKQWVMAEAALTQRQLDSEIRDLATEAV | not soluble
MNGVYDVGGTDGLGPINRPADEPVFRAEWEKVAFAMFPATFRAGFMGLDEFRFGIEQMNPAEYLESPYYWHWIRTYIHHGVRTGKIDLEELERRTQYYRENPDAPLPEHEQKPELIEFVNQAVYGGLPASREVDRPPKFKEGDVVRFSTASPKGHARRARYVRGKTGTVVKHHGAYIYPDTAGNGLGECPEHLYTVRFTAQELWGPEGDPNSSVYYDCWEPYIELVDT | soluble
VQAVAVLKGDAGVSGVVKFEQASESEPTTVSYEIAGNSPNAERGFHICEFGDATNGCVSAGPHFNPFKKTHGAPTDEVRHVGDMGNVKTDENGVAKGSFKDSLIKLIGPTSVVGRSVVIHAGQDDLGKGDTEESLKTGNAGPRPACGVIGLTN | soluble
MSLRLRTLKDLDQAALLLARACALLLDDNTDVPDLRQVIFKCVPKNRLAESVSKVNELARPQNNNFHDEMVEQYGRVKRFLPAVLRDLHFRAAPAGEHVLAAIHYLAELNGSKKRILDDAPEHIITGPWKRLVYDAEGRIQRAGYSLCLLERLQDALRRRDIWLENSDRWGDPREKLLQGEEWQTQRIPVCRALGHPVDGRKGVQQLAIQLDETWKAVASRFEKNAEVHICNEGKYPSLTISCLEKQEEPPSLLRLNNRIKQLLPPVDLTELLLEIDAQTGFTHEFAHVSESGARAQDLHISLCAVLMAEACNIGLEPLIKHNIPALTRHRLSWVKQNYLRAETLVSANARLVDFQSTLELAGRWGGGEVASADGMRFVTPVKTINSGSNRKYFGSGRGITWYNFVSDQYSGFHGIVVPGTLRDSIFVLEGLLEQQTGLNPVEIMTDTAGSSDIIFGLFWLLGYQFSPRLADAGEAVFWRVNKSANYGVLDKLARGYADLSKAESQWDEMMRTAGSLKLGTIHASELIRSLLKSSRPSGLAQAIMEVGRVNKTLYLLNYIDDEDYRRRILTQLNRGEGRHAVARAICYGQRGEIRKRYREGQEDQLGALGLVTNAVVLWNTLYMEEALSWMRRNGEEIIDEDIARLSPLMHGHINMLGHYTFTLPEDILKGELRALNEGHHHHHH | not soluble
MGHHHHHHSHMSETSFNLISEKCDILSILRDHPENRIYRRKIEELSKRFTAIRKTKGDGNCFYRALGYSYLESLLGKSREIFKFKERVLQTPNDLLAAGFEEHKFRNFFNAFYSVVELVEKDGSVSSLLKVFNDQSASDHIVQFLRLLTSAFIRNRADFFRHFIDEEMDIKDFCTHEVEPMATECDHIQITALSQALSIALQVEYVDEMDTALNHHVFPEAATPSVYLLYKTSHYNILYAADKH | soluble
VLLKEGARGSAPSAPPPLAVPAFFPLEPLTVNLQSDDGVQHYLRVGLSLKLTDPKAQEYLTQHMPELRSRILLALSNKHPEQLATLEGKRALADELKTLIEQPTQPGNQSARVDDVLFTEFVVQ | not soluble
MAHHHHHHMSQNKLYKTNYGYNNPILLNKNERNIKTYVNQETMTNKLLTTYNRSPLQSNYEHNIPKIIHSSTIKKQGVINENNGDKIYKPNYRDMNNLYNSKYVFSKNTPEYINGRKQMITVYDNIKNEERNKSINYYKNKNMIKIPSSYNSNNGNKIKSNNVKDGVLQLEKGSIQNVAKNMNTFHNKSNENGKFIKKLNNSNYKEVTSNVDEIRLLNKSLSAKISSSIKTNYEKSNILDHKKNTNVKVSKISIENKKYNIRKKENMKWAPKYNNNNNNNNNKDHKNMIIESVKVVKNPKEINKKKTKIVQNKYKNPLPSYICLHFHDNSLNLNNGLKIFNDMITVDKNQRMKKWNGYEWDVIEKDFHFLIKARYDNKGNIWCINKSYEVLKIMRNKLKNFGHLGKEEIIDIGFDKKNILWCINRKGQLLKWVKTKWDNIQYKGFHKLICFSFDKKGELWAINLKKELAIWNKKNKCWDEKYIKDNLKISCIDFDGDGKLWVVSNSGALLTYSKDQWINFGLVCLDELICISFKKLQE | not soluble
MAHHHHHHMHTLVNFYTKGSDPVHKATIMPRGMSLGVTWKIPISDKYSQKIRDVQSEIDILMGGLVSEEIIFGKNNVTTGCSSDLQRATHIAQSLVMNYGVGINEENISMFLQDKKNISEEMKIKIDKSIQRILLDSYNRAKKVLNQHIDELHRVASALVEYETLTSDEIKLAMQGKHDQIRKNRELKQKEFNLKDSRIS | soluble
METGMVTVVNSNNFDVPRIYPPSSKSTSIHLTGFPTFYSKDHEYLLPVNLWFNYLVNIRKAVDITASVRALKRYWQFLETNNYSWDNFPANDYLKPTYRFRNDDLLKAARSGEIAFSTASMYILHVIKFYEWAAHERFITFTEENKPFNYQIVHIANSGMMSHNNPRFTVRSTDLRIRKPARNEQQKLNPLSQQELLFFADCLKECSDEFIIHQLLQIQSGLRVEEACTFPFSIVEMPNPHIHRYEVEIGIHNGVHTKFNKTRKVEIPNQLMRKMYDYSVSERRLKREKKTDGVNKTLLLNNLGNPLCSNNIQQHFRRLRHHIQNKHNIVFSHRTHDLRATYGTYRLDSLLDHLPVGDALALIMGWMGHKDDKTTWKYLRYLRKEKANQNAIVMLDQILEEAML | not soluble
MAAQIPIVAATSTPAVARNSKKRPASPSHNSSGGGYGASKKKKLSASGFAQGVSIEAMNESKMASSELSSGPVEKAAKPLPFKDPNFVHSGHGGAVAGKKNRTWKNLKQILAAERALPWQLNDPNYFSIDAPPSFKPAKKYSDISGLLANYTDPQSKLRFSTVEEFSYIRRLPSDVVTGYLALRKATSIVP | not soluble
MDVNTASQSTTDEQMMDILLVLDKEKKTISAVKGVDENGELQTVPPENNSELLKFDRHGDFFSNFFSNMMNQLKNPTRFNFFKIPKIELPKIEPIIRDNFNHPTPENEAGIERYRVTPETVKQEAKKEQQETQAQQPQQPAKEAGAMAQTPQQPDKSKYVIDPDKVDWEALKNFGLSKEQLEKAKALEPMLRGYKSPGAFTIAGNYNSAIMKLDARLSFRHDKDGNVVLAIHGIRQKPELERPFFGHEFSKEDKANLLETGNMGRIVNLKNYITGEMIPSFVSVDKVTNELVSMRASSVQIPDEIKGVKLNKEQKQALREGKGVFLENMISNRKNPFSATVQVNADKKSLEFIYPNAKQSQEQGQKQTQQNSLVTSDGVTIPKSISGIELSRQQQQDLVNDKTIFVAGLKDKRGVEYDAYIQVNHDKKKLGFYSDNPSFDRSAVKEITPASKNRTQVAVNSEGKTNEATKKVKEPLKKGQDKPTEKQKTKQDKKEKQEQTDKPKQSRGRKR | not soluble
